Among the data in the supplement of paper PMC12042874 are amyloid nucleation score values, retold here.

± gives the uncertainty stated by the source.

The nature of the series: amyloid nucleation score (Sup35N fusion, yeast selection) (log enrichment); library NNK2; higher = more nucleation; inactive = no reads after selection. The essentials:
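The nucleation score is a DiMSum log enrichment of output over input reads, centred on the mode score of non-aggregating sequences. Sequences under 100 input reads were excluded, and reads came from Illumina sequencing of plasmid inserts. Psi-negative yeast expressing Sup35N fused to peptides of 20 random codons were induced with 100 μM copper sulfate for 24 hours and grown 7 days at 30°C on medium lacking adenine and uracil. Random libraries had three technical output replicates.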
Regarding SYWNLRQVVSIDDCMQSTFN, the amyloid nucleation score is 0.058 ± 1.

Consider SYWSLRLFCFQLCLDHYRNG, for which the amyloid nucleation score amounted to 2.74 ± 0.21.

In the case of SYYLALYLMEYFYLDDARLN, the amyloid nucleation score was -1.2 ± 1.

On to TACVSWGPSYWV, for which the amyloid nucleation score result was “inactive”.

As for TAFSNRCLIQSQKSYLQFSV, the amyloid nucleation score entry was “inactive”.

As for TAGLYDKTLFYSFYLRYPKF, the amyloid nucleation score result is “inactive”.

The substance TAHGAQWVPDWWEPVTSAYW came in with an amyloid nucleation score of 1.21 ± 0.21.

Turning to TAKSVVA, the amyloid nucleation score is -0.703 ± 0.29.

Regarding TARDVFIAVFA, the amyloid nucleation score turned out to be 0.089 ± 1.1.

Consider TAVVLTTGLHVIQVLWHN, for which the amyloid nucleation score is 2.94 ± 0.12.

For TAVWDL, the amyloid nucleation score came to 0.745 ± 0.42.

Turning to TCIDEGEVVLDFFNVIKVLC, the amyloid nucleation score result was “inactive”.

TCIYSYRRNSCRIGCLRSWR displayed an amyloid nucleation score of 0.425 ± 0.6.

For the substance TCNSSGPMMRCLIHWETRHR, the amyloid nucleation score came to 5.17 ± 0.093.

TCNWGMDG registered an amyloid nucleation score of 0.553 ± 0.62.

In turn, TCSFMMCLPTRLARIIDPWM had an amyloid nucleation score of -0.322 ± 0.49.

Consider TCVVMAKGKLVVPVQEYPCV, for which the amyloid nucleation score stood at 2.62 ± 0.11.

For the substance TCWKDYIYIFALVNYSGHRA, the amyloid nucleation score entry was “inactive”.

On to TCYTTSVRNSTS, for which the amyloid nucleation score turned out to be 0.082 ± 0.36.

For TDAGNKGNTTCNRRSACLFY, the amyloid nucleation score is 0.669 ± 0.74.

For the substance TDASYNRMVTYFKWIISGYR, the amyloid nucleation score is -1.39 ± 0.54.

With TDCVKTRPCGRLVKIPLYME, the amyloid nucleation score was -0.708 ± 1.1.

TDKIWSCHLGQTAWLSKSSG showed an amyloid nucleation score of 0.385 ± 0.33.

In turn, TDLYCFSSI displayed an amyloid nucleation score of -1.29 ± 1.

As for TDVAY, the amyloid nucleation score turned out to be 0.258 ± 0.2.

TDYGLVALSQWKRVCLIQSG yielded an amyloid nucleation score of 0.176 ± 0.22.

Turning to TDYLGLWPWVSSSLGRVVTW, the amyloid nucleation score came to 1.22 ± 0.45.

The substance TEIRLNVSLRSRRGPCPTRL returned an amyloid nucleation score of 6.06 ± 0.06.

TETAL: the amyloid nucleation score is -1.05 ± 0.61.

With TFAIIQYRNCLVTPISFKHF, the amyloid nucleation score was 6.5 ± 0.081.

The substance TFATYTISNCLYVPRPVT displayed an amyloid nucleation score of 0.879 ± 0.19.

As to TFFGWLALRIWARYRYE, the amyloid nucleation score entry was “inactive”.

For TFLLAFFIFFLNG, the amyloid nucleation score is -0.306 ± 0.53.

The substance TFLTLA gave an amyloid nucleation score of 0.979 ± 0.4.

Regarding TFNRFFRCSVFAFRA, the amyloid nucleation score is 4.53 ± 0.062.

TFPMEFLPF displayed an amyloid nucleation score of -1.12 ± 0.49.

Consider TFRYVWLSHPV, for which the amyloid nucleation score was determined as 3.63 ± 0.11.

As to TFTFDGRSSNFG, the amyloid nucleation score is -0.343 ± 0.55.

TFVLSNC had an amyloid nucleation score of -0.356 ± 0.65.

In turn, TGCMSFSWPWTLLVSPIQLS gave an amyloid nucleation score of -0.651 ± 0.48.

As to TGDSYLYRWVSARFGHRLRS, the amyloid nucleation score is -0.314 ± 0.27.

As for TGFNRCGSRWWLLVSNVKLV, the amyloid nucleation score is -0.388 ± 0.54.

Substance TGHFKKYVKGEGADDSNCAL yielded an amyloid nucleation score of 0.347 ± 0.29.

Regarding TGNVTGRLFWNVFVRYSGVL, the amyloid nucleation score is -0.03 ± 0.55.

TGQKFT yielded an amyloid nucleation score of -0.615 ± 0.41.

Take TGTFRIAWM: the amyloid nucleation score was found to be 6.64 ± 0.063.

With TGVIAYVRKVGDLSSCVYSC, the amyloid nucleation score came to 3.6 ± 0.14.

In turn, TGYAWGG showed an amyloid nucleation score of 2.16 ± 0.22.

Take THKNLEC: the amyloid nucleation score is 0.681 ± 0.17.

As for THLKYTFWIFV, the amyloid nucleation score was 2.62 ± 0.14.

In turn, THLLVVWFDNRYF had an amyloid nucleation score of 0.978 ± 0.74.

On to THQRAYCFSSVYWVNVSKSG, for which the amyloid nucleation score is -0.006 ± 0.74.

Take THTLRGLQANRMISNNMDTI: the amyloid nucleation score is -0.402 ± 0.61.

In turn, TICVSSVRRTGKGSWVRDWA displayed an amyloid nucleation score of 0.356 ± 0.5.

The substance TIFLFLFSMVSVVICLMVLP had an amyloid nucleation score of -1.31 ± 0.55.

In turn, TIGRGYGSISQRHAIRLGDN displayed an amyloid nucleation score of 0.164 ± 0.8.

With TIIRMKLS, the amyloid nucleation score came to 1.39 ± 0.39.

TIWVATLDFPNSYMSSALFV displayed an amyloid nucleation score of 4.27 ± 0.093.

TKDERFV showed an amyloid nucleation score of 0.218 ± 0.29.

With TKLLP, the amyloid nucleation score is -0.149 ± 0.55.

In turn, TLCRGTVLVAFGSPNITPSK displayed an amyloid nucleation score of 3.89 ± 0.059.

With TLCTVSHLNDSLLIFIRFVV, the amyloid nucleation score entry was “inactive”.

For TLFSYEYVYKFMGPRFKGAG, the amyloid nucleation score was -0.746 ± 0.54.

The substance TLGTFVWVFRSFTCLLLEEQ came in with an amyloid nucleation score of 3.29 ± 0.057.

In turn, TLGTLRQ displayed an amyloid nucleation score of 1.59 ± 0.23.

The substance TLGYKFWMGRYRVNSAYGFE displayed an amyloid nucleation score of -0.005 ± 0.61.

TLMCFYYFEQ had an amyloid nucleation score of 9.395 ± 0.053.

For the substance TLMQSYVQFWYTLYSHNNWL, the amyloid nucleation score was -0.698 ± 0.24.

In turn, TLPRSII yielded an amyloid nucleation score of -0.113 ± 1.1.

Turning to TLPVPPGCRFVEITV, the amyloid nucleation score worked out at 0.293 ± 0.53.

Consider TLRTFRRAQGTRYVYLK, for which the amyloid nucleation score was found to be 0.121 ± 0.23.

Regarding TLSKVFRVRPGSMTTHCYIV, the amyloid nucleation score entry is “inactive”.

For the substance TLTSSCVNFINMLHEIFRYS, the amyloid nucleation score was -0.623 ± 1.

In the case of TLVSWYSTTEPAC, the amyloid nucleation score is -1.13 ± 0.78.

The substance TLWYRLFLVSISVFPKFVTE returned an amyloid nucleation score of -0.451 ± 1.1.

The substance TLYWNKSQRYGLLWFKFVSL had an amyloid nucleation score of -0.277 ± 1.

Take TMMSLSGIVL: the amyloid nucleation score was -0.376 ± 0.48.

For the substance TMSFFLGSLEVL, the amyloid nucleation score is -1.09 ± 0.48.

Regarding TMYFILLCMLLRGFSSGPPP, the amyloid nucleation score was -1.04 ± 0.78.

Consider TNCHLFVSFFLCVDVYTVVC, for which the amyloid nucleation score came to 4.72 ± 0.063.

In the case of TNDVTSWKLTHCYLWPKADF, the amyloid nucleation score was -0.328 ± 0.32.

In the case of TNHYSSVRS, the amyloid nucleation score is -0.195 ± 0.54.

Consider TPSFLLMICRNMVLGCG, for which the amyloid nucleation score was determined as 0.472 ± 0.8.

TQSWDEWSYGNITGSTSYRL gave an amyloid nucleation score of 0.25 ± 0.23.

TQSWVAISLVRHRSWGSWLG came in with an amyloid nucleation score of 3.57 ± 0.07.

On to TRDSLGRKGYRSAVLTPSMP, for which the amyloid nucleation score worked out at 1.29 ± 0.14.

TRETHLGNAFA came in with an amyloid nucleation score of 0.674 ± 0.53.

In the case of TRFCCVATHFDYNLIIFYYP, the amyloid nucleation score was found to be 0.554 ± 0.23.

On to TRGITCRLAYLQSLVNE, for which the amyloid nucleation score was determined as 0.383 ± 0.43.

The substance TRGIVGFPD registered an amyloid nucleation score of 3.93 ± 0.067.

The substance TRIRWWF had an amyloid nucleation score of 4.21 ± 0.067.

As for TRLLIVDFNIFSIEIVHLMS, the amyloid nucleation score is 2.41 ± 0.071.

TRMHESIWV: the amyloid nucleation score was found to be 1.73 ± 0.077.

In turn, TRNAFNCTENISTLPTARYL had an amyloid nucleation score of -0.399 ± 0.46.

TRSHLFGYSVMGSSLIDSLY: the amyloid nucleation score was -1.24 ± 0.79.

In turn, TRSMSSAPADCVASGT gave an amyloid nucleation score of -0.512 ± 0.76.

Regarding TRVAYRI, the amyloid nucleation score is 0.219 ± 1.

TRYHLHSALT displayed an amyloid nucleation score of -0.12 ± 1.

In turn, TSDPEFV registered an amyloid nucleation score of -0.627 ± 0.49.

Substance TSHRWAMGSRYEVHIAVGMF registered an amyloid nucleation score of 1.13 ± 0.26.

For TSISLLFWCVYSLASVGFSA, the amyloid nucleation score was -0.586 ± 1.1.

Turning to TSLMRYIPMGHLKAWIFLSI, the amyloid nucleation score worked out at 0.049 ± 1.1.

Consider TSNLFHLYGACRRYMGRCSA, for which the amyloid nucleation score was determined as 0.434 ± 0.66.

TSNNVCCARHPI came in with an amyloid nucleation score of 1.37 ± 0.29.

As to TSQLSFYKHSLVY, the amyloid nucleation score entry was “inactive”.

As to TSSFIRLNYSNALLNKFWSN, the amyloid nucleation score is -1.99 ± 0.75.

Regarding TSTCNRRVIWMHLEPGELCV, the amyloid nucleation score was -0.375 ± 0.76.

TSVASGRNGNSPVHNALAWG came in with an amyloid nucleation score of 0.2 ± 0.35.

TSVYFHFGFPPWVGVPRRLT returned an amyloid nucleation score of 3.17 ± 0.077.

TSYIVDTSSLFITRASTG gave an amyloid nucleation score of 0.336 ± 0.44.

As for TSYYLDL, the amyloid nucleation score was -1.31 ± 0.75.

TTDSGAVYSGLPE returned an amyloid nucleation score of 0.542 ± 0.19.

Substance TTICVFNVGESHMRLSGSVG showed an amyloid nucleation score of -0.053 ± 0.28.

For the substance TTILEL, the amyloid nucleation score was -0.305 ± 0.79.

Substance TTRYANWNMNINLGL registered an amyloid nucleation score of 6.613 ± 0.046.

Turning to TVALNSWARHGEML, the amyloid nucleation score was -0.375 ± 1.1.

For TVCWEWSSLWDTPSLKSAD, the amyloid nucleation score was found to be 0.536 ± 0.37.

TVFFIFHLLVYLPMFTRALD registered an amyloid nucleation score of 8.55 ± 0.043.

For the substance TVIGLLIIVVGSYDVCSNVW, the amyloid nucleation score is 6.163 ± 0.041.

Consider TVILV, for which the amyloid nucleation score result was “inactive”.

For the substance TVLLGHLEGRVYWEPMIQQV, the amyloid nucleation score stood at 0.36 ± 0.64.

In turn, TVPGNEEV returned an amyloid nucleation score of 0.028 ± 0.53.

In turn, TVPTMVW showed an amyloid nucleation score of -0.124 ± 0.29.

Consider TVRASCFRVSVRKEKKIVVA, for which the amyloid nucleation score stood at 0.233 ± 0.77.

As for TVRRTRFLNNISFNGFNVFV, the amyloid nucleation score is 7.383 ± 0.054.

In turn, TVSHDTGFGRNFFHVLLLS had an amyloid nucleation score of -0.012 ± 1.1.

On to TVSSIKFVVYSGLRWYELVY, for which the amyloid nucleation score is 2.27 ± 0.1.

TVTVDIFSKEWTGGTNFCDI registered an amyloid nucleation score of -0.179 ± 0.76.

As to TVWGQECYW, the amyloid nucleation score was determined as 5.74 ± 0.077.

For TVWVIVERYMGFLYFLYNTS, the amyloid nucleation score entry is “inactive”.

In the case of TWCMRMNCSAFRKGVVNYSR, the amyloid nucleation score stood at 2.91 ± 0.078.

As for TWIGYHFGI, the amyloid nucleation score result is “inactive”.

TWLIRPKWVSVQVIRMLPMV: the amyloid nucleation score came out at 1.11 ± 0.41.

In the case of TWRHSPCLVRTEFERKLTRL, the amyloid nucleation score is 0.039 ± 0.49.

As for TYAYYH, the amyloid nucleation score was found to be 5.61 ± 0.061.

Substance TYEIFLVPS yielded an amyloid nucleation score of 0.41 ± 0.74.

Substance TYFVLYVCED yielded an amyloid nucleation score of 0.311 ± 0.23.

As to TYGTTELVLHRTEINMMRNQ, the amyloid nucleation score turned out to be 3.25 ± 0.12.

TYIFLSRIGQFSKLQYVMRL displayed an amyloid nucleation score of 5.37 ± 0.056.

TYLDGAYLLFDSARFAKAVK yielded an amyloid nucleation score of 0.144 ± 0.24.

For the substance TYLLLWSCGWLSWRVICALR, the amyloid nucleation score turned out to be 4.66 ± 0.089.

TYQFMHVRLFRPMTSFIVYG yielded an amyloid nucleation score of 0.36 ± 0.56.
